Series [1] can be described thus: Surface plasmon resonance, immobilized sulfatide liposomes. As to conditions: SPR, estimated; read-out: dissociation constant (KD), sulfatide binding. The procedure: (§1) Surface plasmon resonance (SPR) binding experiments were performed on a BIAcore X instrument using L1 sensorchips coated with ˜0.5 mM of mixed sulfatides or PtdIns(4,5)P2 size calibrated liposomes. N-PTB domain or its mutants binding experiments were performed in a degassed solution containing 10 mM Tris-HCI (pH 7.4) and 150 mM NaCl. This buffer was used during equilibration, association and dissociation phases. Proteins were added to this buffer at the indicated concentrations. Regeneration of the phospholipid bilayer after dissociation phase was carried out using 20 mM NaOH. For competition SPR, increasing molar amounts of dioctanoyl PtdIns(4,5)P2 were preincubated with 5 μM N-PTB for 20 min at room temperature. The entire reaction was then exposed to an L1 sensorchip containing immobilized sulfatide liposomes (˜0.5 mM).

Series [2] has as its system platelet and leukocyte mixtures. As to the kind of experiment: Platelet-leukocyte aggregation assay (flow cytometry, CD42b on leukocytes). The settings on record: ADP 30 μM, sulfatide liposomes. In kind it is cell-based, human. As for the experimental part: Whole blood was collected as indicated above and centrifuged at 200 g to separate the blood from plasma and red blood cell fractions. Plasma and buffy coat layer were carefully removed and diluted 1:1 with PBS. The dilution was then layered onto a Ficoll Plus gradient and spun at 200 g for 20 min. The enriched platelet and leukocyte layer was removed, diluted with PBS, centrifuged and the pellet resuspended in Tyrode's Albumin buffer to a concentration of ˜3×10^5 platelets/μL and 3×10^3 leukocytes/μL. Isolated platelet-leukocyte mixtures were remained unactivated or activated with ADP (30 μM). Both unactivated and activated platelets were incubated for 10 min at 23° C. with liposomes (50 μg/mL) either without (liposomes control) or with sulfatides, and N-PTB constructs (1 μM). Reactions were fixed with 1% formalin and incubated with APC-labeled CD42b (Biolegend) and FITC-labeled CD45 (Biolegend) antibodies. Bound antibodies were quantified using a FacsAria flow cytometer.
Platelet P-selectin mediates platelet-leukocyte interactions through binding of leukocyte PSGL-1 (Merten 2005). […] Platelet binding of leukocytes was quantified through the fluorescence of allophycocyanin (APC) labeled anti-human CD42b (platelet marker) detected on leukocytes. The fluorescence was detected using flow cytometry analysis of platelet-leukocyte mixtures.
Background: In flow cytometry, cells or beads pass a laser one at a time.

A short description of series [3]: CD spectroscopy, secondary structure composition. In kind it is physicochemical. As to conditions: 5 μM construct, DICHROWEB/CDSSTR. As for the experimental part: Spectra were collected using a Jasco J-720 spectropolarimeter. Far-UV CD spectra were measured for Dab2 PTB constructs (5 μM in 5 mM Tris, 100 mM potassium fluoride, 100 μM DTT, pH 6.8) using a 1 mm-slit-width cuvette. Five accumulated scans were recorded for each sample between 190 and 260 nm at 20° C. in increments of 0.5 nm. Background of buffer alone was subtracted from each spectrum. Raw data were converted to mean residue ellipticity and analyzed for secondary structure composition using DICHROWEB and deconvoluted using CDSSTR.

The nature of series [4]: Competition SPR, PtdIns(4,5)P2 pre-incubated protein on sulfatide liposomes. As to conditions: 5 μM protein pre-incubated with increasing PtdIns(4,5)P2; read-out: IC50 of PtdIns(4,5)P2 competition for sulfatide binding. The procedure: as §1
The test system of series [5] is platelet surface αIIbβ3 integrin. Briefly: Flow cytometry, platelet surface αIIbβ3 integrin. In kind it is cell-based, human. The settings on record: ADP 30 μM, sulfatide liposomes 50 μg/mL. As for the experimental part:
(§2) Washed platelets (2.5×10^5 platelets/μL) were kept unactivated or either activated with ADP (30 μM) or TRAP (10 μM). Both unactivated and activated platelets were incubated for 10 min at 23° C. with liposomes (50 μg/mL) either without (liposomes control) or with sulfatides, and N-PTB constructs (1 μM). Reactions were fixed with 1% formalin and incubated with PE- labeled CD62p anti-P-selectin (BioLegend) or FITC-labeled PAC-1 anti-integrin receptor (BD Transduction) antibodies. Bound antibodies were quantified using a FacsAria flow cytometer.
Once present, P-selectin is able to interact with sulfatides which triggers an internal phosphorylation pathway thought to be mediated by p38 (FIG. 12A) (Merten 2005). This cascade results in further de-granulation and an increase in surface P-selectin (Merten 2005). To monitor the de-granulation of platelets, two activation markers were evaluated using fluorescent antibodies specific for P-selectin and the αIIbβ3 integrin. Marker surface expression was quantified using fluorescence-activated cell sorting (FACS) analysis, and measuring the median fluorescent signal of 10,000 platelets. The median signal was used as our reference to quantify the data set as median values are less affected by the wide range of platelet signals and is therefore more representative of the population. […]

The subject of series [6] is platelet surface P-selectin. Briefly: Flow cytometry, platelet surface P-selectin. In kind it is cell-based, human. As to conditions: for inhibition of sulfatide induced activation (surface P-selectin): ADP 30 μM, sulfatide liposomes 50 μg/mL. As for the experimental part:
as §2
Once present, P-selectin is able to interact with sulfatides which triggers an internal phosphorylation pathway thought to be mediated by p38 (FIG. 12A) (Merten 2005). This cascade results in further de-granulation and an increase in surface P-selectin (Merten 2005). To monitor the de-granulation of platelets, two activation markers were evaluated using fluorescent antibodies specific for P-selectin and the αIIbβ3 integrin. Marker surface expression was quantified using fluorescence-activated cell sorting (FACS) analysis, and measuring the median fluorescent signal of 10,000 platelets. The median signal was used as our reference to quantify the data set as median values are less affected by the wide range of platelet signals and is therefore more representative of the population. When platelets were stimulated with ADP (30 μM) they show increases in both surface P-selecting and αIIbβ3 integrin expression. In the presence of sulfatides (50 μg/mL), in the form of enriched liposomes, the levels of P-selectin and αIIbβ3 integrin were further increased to about 20-25 fold their un-stimulated levels (FIG. 12B). […] The levels of P-selectin and αIIbβ3 integrin were measured among several different individuals and the levels varied greatly between them; however; consistently, sulfatides induced a ˜20 fold increase over un-stimulated platelets and a ˜10 fold increase over ADP stimulated platelets.

A word on the Kd: it is the concentration at which binding is half-saturated. One may read the IC50 as the concentration at which inhibition is half-maximal.

B1: N-PTB: N-terminal phosphotyrosine binding domain (residues 1-241) of human Disabled-2 (Dab2), expressed as GST-fusion in E. coli (protein)
chain: MSNEVETSATNGQPDQQAAPKAPSKKEKKKGPEKTDEYLLARFKGDGVKYKAKLIGIDDVPDARGDKMSQDSMMKLKGMAARGRSQGQHKQRIWVNISLSGIKIIDEKTGVIEHEHPVNKISFIARDVTDNRAFGYVCGGEGQHQFFAIKTGQQAEPLVVDLKDLFQVIYNVKKKEEEKKKIEEASKAVENGSEALMILDDQTNKLKSGVDQMDLFGDMSTPPDLNSPTESKDILLVDLNS
In the case of B1, the Kd in series [1] is approximately 1930 nM. For the same molecule, the “inhibition of platelet-leukocyte binding” value in series [2] is “decreased platelet binding to leukocytes”. In addition, the “inhibition of platelet-leukocyte binding” value in series [2] (listed as N-PTB^4M) is given as “no inhibition of platelet-leukocyte binding”. Moreover, in series [3], the “Helix 1” value came to 8%, the “Helix 2” value is on record as 10%, the “Strand 1” value is on record as 17% and the “Strand 2” value is 10%. In series [3], this molecule had a Turns of 23% and an Unordered of 31%. In addition, the IC50 in series [4] was approximately 2000 nM. Moreover, the “inhibition of sulfatide induced expression of αIIbβ3 integrin” value in series [5] is “inhibition of sulfatide induced expression”. The “inhibition of sulfatide induced expression of αIIbβ3 integrin” value in series [5] (listed as N-PTB^4M) is on record as “no inhibition”. The “inhibition of sulfatide induced activation (surface P-selectin)” value in series [6] was “remained at ADP stimulated levels”. For the same molecule, the “inhibition of sulfatide induced activation (surface P-selectin)” value in series [6] (listed as N-PTB^4M) is on record as “no inhibition of sulfatide induced activation”. Besides, the IC50 in series [6] (titration 1 nM-1 μM, ADP stimulated platelets, logarithmic curve fit, read-out: IC50, inhibition of sulfatide induced P-selectin marker expression) came to 121 nM.

Values taken from US20100285583A1, “COMPOUNDS AND METHODS FOR INHIBITING PLATELET AGGREGATION” (priority 2009, published 2010).
